Laboratory results published in patent US6191256A, “Recombinant factor VIII binding peptides” (Bayer Corporation, priority 1998, dated 2001).

Legend:
rFVIII [1] = target: T1, rFVIII (Homo sapiens, UniProt P00451); experiment: confirmatory binding assay in filtration plate format using 14C-rFVIII; settings: for 0.5M CaCl2 % total / 2% acetic acid % total / 2% acetic acid dpm / 0.5M CaCl2 dpm: 5 mg beads; for 0.5M CaCl2 dpm: 5° C.; for beads % total / beads dpm: remaining on beads after washes
Method: Confirmatory binding assays were performed in a filtration plate format using individual peptide sequences synthesized directly onto the TOYOPEARL AF amino 650 M resin, at a final substitution density of 0.1 mmole/g resin. A slurry of each individual peptide sequence was prepared using deionized water. A 100 μL volume of beads (corresponding to 5 mg) was loaded into each well of the filtration plate (MULTISCREEN Assay System, Millipore, Bedford, Mass.), in triplicate for each peptide sequence. Beads were washed with 20% ethanol and incubated overnight with equilibration buffer (20 mM imidazole, 10 mM
CaCl2, 0.105 M NaCl, pH 6.9). A 100 μL aliquot of ^14 C-rFVIII diluted in neat PPF to a final concentration of 20-30 nM was loaded into each well and incubated for 1 hour at 5° C. Filtrate (unbound ^14 C-rFVIII) was collected into a microtiter plate and transferred to liquid scintillation vials for dpm counting. Beads were washed sequentially with: 100 μL of equilibration buffer for 15 minutes, 200 μL of 0.5 M CaCl2 (in equilibration buffer), 200 μL of 1.0 M CaCl2 (in equilibration buffer), and 200 uL of 2% by volume glacial acetic acid in water, for 1 hour each at 5° C. Scintillation counting on the unbound ^14 C-rFVIII (plus equilibration buffer wash), salt and acid washes, as well as on the beads was then performed and the overall mass balance calculated.
Beads presenting the appropriate peptide sequence on the surface were placed in the filtration plate wells and incubated sequentially with equilibration buffer, ^14 C-rFVIII in PPF, equilibration buffer, 0.5 M CaCl2 wash, 1.0 M CaCl2 wash and 2% acetic acid wash. After each incubation, filtrate was collected in microtiter plates, and dpm counted on each
In Table 3, the ^14 C-rFVIII was loaded at 20 nM (in PPF) and the radiolabeling yield was at 3.0×10^15 dpm/mole. In Table 4, the ^14 C-rFVIII was loaded at 30 nM (in PPF) and the radiolabeling yield was at 5.0×10^15 dpm/mole.

rFVIII [2] = target: T1, rFVIII; experiment: column format binding assay, rFVIII mass per fraction by sandwich capture ELISA for the light chain; settings: for Flow through ng: 10,000 ng rFVIII in 1:10 PPF injected, 5° C.; for ELISA results % total: Table 9, 0.5M CaCl2 fraction
Method: (§1) Immunoassay on rFVIII using a sandwich capture ELISA for the light chain and activity assay using a chromogenic substrate (COATEST Factor VIII kit from diaPharma, Franklin, Ohio) were performed on a BIOMEK® automated liquid handling system from Beckman Instruments (Brea, Calif.). The monoclonal antibody for rFVIII light chain (known as C7F7), the ELISA assay standard (lot A70K019), and the control for the activity assay (lot A70A001 @ 140 IU/mL) were from the Bayer Corporation (Berkeley, Calif.). The standard for the activity assay was at 11.2 IU/mL (Bayer, Clayton, N.C.), calibrated against the MEGA 1 standard, which is a working standard used by American manufacturers for measuring factor VIII activity (21).
(§2) Additional confirmatory binding assay and performance of the discovered binding peptides in terms of total rFVIII and activity recovery was performed in a column chromatographic format on a microbore HPLC. The resins were packed into 0.4×5 cm columns (Thomson, Springfield, Va.) and tested on the MICHROM HPLC system (Michrom BioResources, Auburn, Calif.). The elution program for the trials utilized the following method. The column was pre-equilibrated with equilibration buffer (as above). A 1 mL aliquot of 1:10 PPF followed by 1 mL of rFVIII (10,000 ng) in 1:10 PPF were injected and allowed sufficient time to flow through the column using equilibration buffer. The column was then washed with step elutions of 0.5 M and 1.0 M CaCl2 in equilibration buffer. The column was exposed to equilibration buffer. Remaining protein was eluted with 2% by volume glacial acetic acid in water. Columns were kept at 5° C. during the chromatographic runs. For each 1 mL injection (equilibration buffer, 1:10 PPF and 10,000 ng rFVIII in 1:10 PPF), the chromatographic cycle was run for 45 minutes (injection, flow through, 0.5 M CaCl2, 1.0 M CaCl2, equilibration buffer, 2% acetic acid, equilibration buffer).
(§3) A Gilson FC204 fraction collector at the HPLC outlet collected individual eluates for further analysis. Each collection tube had 100 μL hSA added to it to stabilize the rFVIII. Fractions collected from the 2% acetic acid eluates were neutralized with 2 M Tris, pH 10.5 to bring the pH to neutrality. The fractions were analyzed for total protein by the integration of the absorbance at 280 nm, for rFVIII by immunoassay (sandwich capture ELISA), and for rFVIII activity by a chromogenic substrate assay.
Tables 5 and 6 present the results from the additional confirmatory binding assays using the column format. The chromatography method was run by injecting the samples at a flow rate of 865 μL/min (413 cm/hr). In order to provide a 10 minute residence time of sample in the column the flow was decreased to 17 μL/min (10 cm/hr) upon injection.
Following the incubation, the flow was set at 865 μL/min (413 cm/hr) for the step clutions of 0.5 M CaCl2, 1.0 M CaCl2, and 2% acetic acid. Results are expressed in terms of the total mass of rFVIII in each fraction, as determined by the sandwich capture ELISA assay for the rFVIII light chain. […] A control using a non-binding peptide sequence (IGF) is also shown for comparison--in this case, 95% of the rFVIII loaded to the column was collected in the flow through fraction. Additional controls with no

rFVIII [3] = target: T1, rFVIII; experiment: rFVIII activity recovery from peptide columns by chromogenic substrate assay (COATEST); format: biochemical; settings: for 0.5M CaCl2 % total: activity recovery; for Flow through IU: rFVIII activity in fraction; for Activity results % total: Table 9, 0.5M CaCl2 fraction
Method: as §1, §2, §3
Tables 7 and 8 list the sequences for which activity recovery was determined by a chromogenic substrate assay (COASTEST kit, diaPharma, Franklin, Ohio). Chromatographc conditions are the same as described above for the results from Tables 5 and 6. It can be

[4] = Table 4, 14C-rFVIII 30 nM in PPF
[5] = Table 4, 14C-rFVIII 30 nM in PPF, 5.0 × 10^15 dpm/mole
[6] = Table 3, 14C-rFVIII 20 nM in PPF

T1 sequence (P00451 20-2351): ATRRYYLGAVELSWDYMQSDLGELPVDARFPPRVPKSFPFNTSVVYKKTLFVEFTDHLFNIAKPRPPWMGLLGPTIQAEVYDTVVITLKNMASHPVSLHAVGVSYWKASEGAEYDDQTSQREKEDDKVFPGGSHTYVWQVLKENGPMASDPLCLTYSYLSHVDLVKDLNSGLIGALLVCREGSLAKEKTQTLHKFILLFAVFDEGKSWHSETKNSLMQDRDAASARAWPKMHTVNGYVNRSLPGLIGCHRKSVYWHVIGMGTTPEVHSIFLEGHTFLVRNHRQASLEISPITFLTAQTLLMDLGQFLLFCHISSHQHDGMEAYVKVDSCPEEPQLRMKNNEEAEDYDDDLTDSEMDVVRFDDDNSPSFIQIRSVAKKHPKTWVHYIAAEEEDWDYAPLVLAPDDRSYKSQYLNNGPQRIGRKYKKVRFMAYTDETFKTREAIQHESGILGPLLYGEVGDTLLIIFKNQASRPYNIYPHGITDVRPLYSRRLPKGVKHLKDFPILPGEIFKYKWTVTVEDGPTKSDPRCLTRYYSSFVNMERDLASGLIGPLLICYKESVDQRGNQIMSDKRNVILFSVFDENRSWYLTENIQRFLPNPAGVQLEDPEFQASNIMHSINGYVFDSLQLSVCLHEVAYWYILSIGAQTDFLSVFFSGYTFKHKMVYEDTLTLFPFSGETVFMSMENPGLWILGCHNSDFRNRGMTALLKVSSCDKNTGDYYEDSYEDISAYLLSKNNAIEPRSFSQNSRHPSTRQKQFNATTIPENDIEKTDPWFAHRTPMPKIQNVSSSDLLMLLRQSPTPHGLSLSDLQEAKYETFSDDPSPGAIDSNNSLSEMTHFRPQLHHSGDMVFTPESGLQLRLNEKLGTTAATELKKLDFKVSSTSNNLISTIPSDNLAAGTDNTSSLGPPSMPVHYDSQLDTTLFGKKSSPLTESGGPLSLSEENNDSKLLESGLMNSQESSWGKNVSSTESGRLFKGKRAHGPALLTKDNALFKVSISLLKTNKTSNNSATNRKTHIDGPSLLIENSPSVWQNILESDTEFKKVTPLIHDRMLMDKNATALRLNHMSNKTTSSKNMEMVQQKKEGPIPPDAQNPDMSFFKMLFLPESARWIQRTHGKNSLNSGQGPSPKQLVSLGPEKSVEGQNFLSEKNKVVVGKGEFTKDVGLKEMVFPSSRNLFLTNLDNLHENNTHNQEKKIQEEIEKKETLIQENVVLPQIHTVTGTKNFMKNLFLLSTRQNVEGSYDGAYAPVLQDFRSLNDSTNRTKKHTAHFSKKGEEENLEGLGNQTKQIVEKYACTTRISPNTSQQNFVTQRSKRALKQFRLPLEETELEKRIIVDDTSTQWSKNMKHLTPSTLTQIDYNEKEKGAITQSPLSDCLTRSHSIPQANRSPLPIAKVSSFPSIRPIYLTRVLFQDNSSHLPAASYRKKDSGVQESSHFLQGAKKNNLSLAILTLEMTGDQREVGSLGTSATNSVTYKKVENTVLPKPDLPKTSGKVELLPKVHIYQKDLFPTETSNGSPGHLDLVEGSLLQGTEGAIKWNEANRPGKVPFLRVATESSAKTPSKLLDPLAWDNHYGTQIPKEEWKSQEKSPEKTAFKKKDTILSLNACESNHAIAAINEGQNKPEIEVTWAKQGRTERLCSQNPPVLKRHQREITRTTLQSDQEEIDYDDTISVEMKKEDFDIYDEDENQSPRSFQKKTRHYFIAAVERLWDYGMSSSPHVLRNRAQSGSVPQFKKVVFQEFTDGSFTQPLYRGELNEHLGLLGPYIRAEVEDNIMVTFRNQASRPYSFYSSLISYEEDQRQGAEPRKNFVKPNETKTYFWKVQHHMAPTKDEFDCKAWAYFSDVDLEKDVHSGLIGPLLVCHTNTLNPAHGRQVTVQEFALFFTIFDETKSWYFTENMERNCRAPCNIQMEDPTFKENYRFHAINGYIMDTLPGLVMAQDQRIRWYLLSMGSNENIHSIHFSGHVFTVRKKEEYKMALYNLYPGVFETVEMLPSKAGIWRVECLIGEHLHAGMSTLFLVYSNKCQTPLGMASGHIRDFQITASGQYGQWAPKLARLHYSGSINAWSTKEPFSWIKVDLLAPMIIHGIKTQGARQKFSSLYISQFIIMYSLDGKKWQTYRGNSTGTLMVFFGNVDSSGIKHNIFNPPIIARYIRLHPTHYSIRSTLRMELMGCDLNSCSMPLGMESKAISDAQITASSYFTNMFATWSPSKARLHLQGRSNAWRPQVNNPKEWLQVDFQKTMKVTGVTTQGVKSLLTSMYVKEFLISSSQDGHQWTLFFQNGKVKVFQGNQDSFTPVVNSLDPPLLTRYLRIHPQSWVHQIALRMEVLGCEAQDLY
T1 sequence (P00451 1668-2351 limits assumed): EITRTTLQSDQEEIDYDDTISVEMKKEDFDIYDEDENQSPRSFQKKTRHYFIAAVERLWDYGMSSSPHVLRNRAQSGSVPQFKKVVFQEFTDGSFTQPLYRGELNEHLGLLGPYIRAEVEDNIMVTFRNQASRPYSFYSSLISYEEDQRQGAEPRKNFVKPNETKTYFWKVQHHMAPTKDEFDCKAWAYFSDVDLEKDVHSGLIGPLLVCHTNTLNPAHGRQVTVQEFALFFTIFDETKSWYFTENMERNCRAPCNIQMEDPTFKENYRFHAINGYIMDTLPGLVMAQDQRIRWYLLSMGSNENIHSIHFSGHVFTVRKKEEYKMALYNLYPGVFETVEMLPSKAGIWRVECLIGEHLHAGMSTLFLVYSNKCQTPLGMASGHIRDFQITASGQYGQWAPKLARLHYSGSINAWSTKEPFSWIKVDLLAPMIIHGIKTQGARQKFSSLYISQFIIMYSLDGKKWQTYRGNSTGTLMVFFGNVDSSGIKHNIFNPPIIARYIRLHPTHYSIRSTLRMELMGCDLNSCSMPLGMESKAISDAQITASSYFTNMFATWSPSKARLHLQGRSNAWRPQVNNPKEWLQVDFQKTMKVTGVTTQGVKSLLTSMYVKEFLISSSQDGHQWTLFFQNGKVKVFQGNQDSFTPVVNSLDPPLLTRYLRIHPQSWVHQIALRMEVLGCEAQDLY

For 10 (AFVRSL) [compound 10], the Total dpm (rFVIII [1]; Table 4, 14C-rFVIII 30 nM) was 3764 dpm, the “0.5M CaCl2 % total” value (rFVIII [1]; [4]) was 93% and the “2% acetic acid % total” value (rFVIII [1]; [4]) was 5%. For the same substance, the “2% acetic acid dpm” value (rFVIII [1]; [4]) was 188 dpm, the “0.5M CaCl2 dpm” value (rFVIII [1]; [5]) was 3491 dpm and the beads % total (rFVIII [1]; Table 4, 14C-rFVIII 30 nM) was 2%. The beads dpm (rFVIII [1]; Table 4, 14C-rFVIII 30 nM) was 85 dpm, the “0.5M CaCl2 ng” value (rFVIII [2]; Table 6) was 11023 ng and the “0.5M CaCl2 % total” value (rFVIII [2]; Table 6) was 98%. For the same substance, the “2% acetic acid % total” value (rFVIII [2]; Table 6) was 1%, the “2% acetic acid ng” value (rFVIII [2]; Table 6) was 135 ng and the “Flow through % total” value (rFVIII [2]; Table 6) was 0%. For the same substance, the Total ng (rFVIII [2]; Table 6) was 11272 ng, the Flow through ng (rFVIII [2]; Table 6) was 0 ng and the “ELISA results % total” value (rFVIII [2]) was 98%. For the same substance, the “0.5M CaCl2 IU” value (rFVIII [3]; Table 8) was 53.1 IU, the “2% acetic acid % total” value (rFVIII [3]; Table 8) was 0% and the “2% acetic acid IU” value (rFVIII [3]; Table 8) was 0.1 IU. For the same substance, the “Flow through % total” value (rFVIII [3]; Table 8) was 0%, the “Total IU” value (rFVIII [3]; Table 8) was 54.3 IU and the “0.5M CaCl2 % total” value (rFVIII [3]; Table 8) was 98%. For the same substance, the “Flow through IU” value (rFVIII [3]; Table 8) was 0.0 IU and the “Activity results % total” value (rFVIII [3]) was 98%.
In the case of 13 (KAQETW) [compound 13], the Total dpm (rFVIII [1]; Table 4, 14C-rFVIII 30 nM) is reported as 4096 dpm, the “0.5M CaCl2 % total” value (rFVIII [1]; [4]) is reported as 95% and the “2% acetic acid % total” value (rFVIII [1]; [4]) is reported as 3%. For the same substance, the “2% acetic acid dpm” value (rFVIII [1]; [4]) was 135 dpm, the “0.5M CaCl2 dpm” value (rFVIII [1]; [5]) was 3884 dpm and the beads % total (rFVIII [1]; Table 4, 14C-rFVIII 30 nM) was 2%. The beads dpm (rFVIII [1]; Table 4, 14C-rFVIII 30 nM) was 77 dpm, the “0.5M CaCl2 ng” value (rFVIII [2]; Table 6) was 8018 ng and the “0.5M CaCl2 % total” value (rFVIII [2]; Table 6) was 90%. The “2% acetic acid % total” value (rFVIII [2]; Table 6) was 1%, the “2% acetic acid ng” value (rFVIII [2]; Table 6) was 87 ng and the “Flow through % total” value (rFVIII [2]; Table 6) was 7%. The Total ng (rFVIII [2]; Table 6) was 8863 ng, the Flow through ng (rFVIII [2]; Table 6) was 641 ng and the “ELISA results % total” value (rFVIII [2]) was 90%. The “0.5M CaCl2 IU” value (rFVIII [3]; Table 8) was 48.3 IU, the “2% acetic acid % total” value (rFVIII [3]; Table 8) was 0% and the “2% acetic acid IU” value (rFVIII [3]; Table 8) was 0.09 IU. The “Flow through % total” value (rFVIII [3]; Table 8) was 2%, the “Total IU” value (rFVIII [3]; Table 8) was 50.3 IU and the “0.5M CaCl2 % total” value (rFVIII [3]; Table 8) was 96%. The “Flow through IU” value (rFVIII [3]; Table 8) was 0.8 IU and the “Activity results % total” value (rFVIII [3]) was 96%.
With 5 (LNWKYG) [compound 5] the Total dpm (rFVIII [1]; Table 3, 14C-rFVIII 20 nM) was 4091 dpm, the “0.5M CaCl2 % total” value (rFVIII [1]; [6]) was 86% and the “2% acetic acid % total” value (rFVIII [1]; [6]) was 10%. The “2% acetic acid dpm” value (rFVIII [1]; [6]) was 430 dpm, the “0.5M CaCl2 dpm” value (rFVIII [1]; Table 3, 14C-rFVIII 20 nM in PPF, 3.0 × 10^15 DPM/mole) was 3519 dpm and the beads % total (rFVIII [1]; Table 3, 14C-rFVIII 20 nM) was 3%. For the same substance, the beads dpm (rFVIII [1]; Table 3, 14C-rFVIII 20 nM) was 143 dpm, the “0.5M CaCl2 ng” value (rFVIII [2]; Table 5) was 5530 ng and the “0.5M CaCl2 % total” value (rFVIII [2]; Table 5) was 97%. The “2% acetic acid % total” value (rFVIII [2]; Table 5) was 2%, the “2% acetic acid ng” value (rFVIII [2]; Table 5) was 125 ng and the “Flow through % total” value (rFVIII [2]; Table 5) was 0%. The Total ng (rFVIII [2]; Table 5) was 5680 ng, the Flow through ng (rFVIII [2]; Table 5) was 25 ng and the “ELISA results % total” value (rFVIII [2]) was 97%. The “0.5M CaCl2 IU” value (rFVIII [3]; Table 7) was 36.3 IU, the “2% acetic acid % total” value (rFVIII [3]; Table 7) was 3% and the “2% acetic acid IU” value (rFVIII [3]; Table 7) was 1.2 IU. The “Flow through % total” value (rFVIII [3]; Table 7) was 0%, the “Total IU” value (rFVIII [3]; Table 7) was 37.8 IU and the “0.5M CaCl2 % total” value (rFVIII [3]; Table 7) was 96%. For the same substance, the “Flow through IU” value (rFVIII [3]; Table 7) was 0.0 IU and the “Activity results % total” value (rFVIII [3]) was 96%.
